The record followed here is article PMC10833071.

The target of data set [1] is T1, His6-Fur (UniProt Q66DC2 1-148). Kind of data set: EMSA; 5 mM MgCl2, 50 ng poly(dI-dC); […] (pH not stated); ITC: PBS, 25 C. As to conditions: protein: recombinant; tags: His6; chain copies: 2; label: 5' biotin (BioT6SS-1pF); blunt.
Data set [2] concerns the target T1, His6-Fur. The experiment in a line: competition; […] (pH not stated); ITC: PBS, 25 C. Conditions: protein: recombinant; tags: His6; chain copies: 2; blunt.

B1: BioT6SS1-p (dsDNA)
DNA 1: TATCGCAATAAAAATGCCACTCATGTTTTAATATA
DNA 2: TATATTAAAACATGAGTGGCATTTTTATTGCGATA
In the case of B1, the binding result with His6-Fur [1] is “binds”.

B2: T6SS1-p (unlabeled) (dsDNA)
DNA 1: B1 DNA 1
DNA 2: B1 DNA 2
For B2, the binding result in the data set with His6-Fur [2] was “binds”.
